From the supplement of paper PMC10724198

Columns and labels:
[1] = system: Saccharomyces cerevisiae; experiment: protein stability index of tFT-peptide fusion in wild type (PSI (0-1 scale)); higher = more stable (slower turnover); conditions: genetic background: wild type
Description: (§1)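 MPS profiling in S. cerevisiae of two library types built from selected 12-aa C-degron peptides (IN1, IN2, LN1, LN3, VN2, R1-R5, W1-W3, Atg1 and Rpa12 C-termini): saturation mutagenesis libraries and C-terminal +1 capping libraries (13 aa). Each peptide is fused to the C-terminus of a sfGFP-mCherry timer, after a GGGS linker. Cells are FACS-sorted into 8 mCherry/sfGFP bins and sequenced. PSI runs from 0 (unstable) to 1 (stable), measured once in wild type and in the das1Δ or doa10Δ background.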

[2] = system: Saccharomyces cerevisiae; experiment: protein stability index of tFT-peptide fusion in deletion strain of DAS1 (PSI (0-1 scale)); higher = more stable (slower turnover)
Description: as §1
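Wherever protein stability index of tFT-peptide fusion in deletion strain of DAS1 is given: PSI is a weighted mean of each variant's read distribution over the sorted stability bins, computed only for variants having over 10 reads in total.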
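Wherever protein stability index of tFT-peptide fusion in wild type is given: PSI derived as read-weighted mean over the 8 sorting bins, only variants exceeding 10 total reads kept, mCherry placed adjacent to the peptide and sfGFP distal.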

Sequence | protein stability index [1] | protein stability index [2]
PDKRNHLIKLLNR | 0.652 | 0.668
PDKRNHLIKLGN | 0.617 | 0.605
RLIQPEPVQFLN | 0.215 | 0.61
PWLAASFWRVVG | 0.0915 | 0.717
PDKRNALIKLLN | 0.142 | 0.629
RLFQPLPVQFLN | 0.034 | 0.658
RKHKKGQKQKIN | 0.121 | 0.574
PDKRNHLIKLLA | 0.114 | 0.57
PSLAASNWRVVG | 0.22 | 0.692
KKHKKPQKQKIN | 0.0387 | 0.659
FSMRWTFCYWVN | 0.0818 | 0.365
RLIQPLPVQFPN | 0.622 | 0.605
PSLAASFWRVVGE | 0.672 | 0.668
ARWTVGLWRGAS | 0.495 | 0.692
FSMRWTFFYWVN | 0.104 | 0.44
ARWRVGLWRPAS | 0.645 | 0.691
HRGAVGGWRLVG | 0.172 | 0.665
CTSCGYKIRTNN | 0.261 | 0.704
RLIQPLPVMFLN | 0.0639 | 0.564
PSLAASFWRVVGM | 0.679 | 0.703
PSLAASFWRVVGG | 0.651 | 0.682
LVVYFSCVACIN | 0.0194 | 0.0148
KKHKKGTKQKIN | 0.0759 | 0.608
CTSCGYKFRTNNN | 0.674 | 0.677

Sequence | protein stability index [1] | protein stability index [2]
LVVYLSCVATIN | 0.0174 | 0.0278
LVVSLSCVACIN | 0.0181 | 0.0593
FSTRWTFRYWVN | 0.0442 | 0.62
CTGCGYKFRTNN | 0.231 | 0.678
KKHKKGQKQKIC | 0.0636 | 0.61
PDKRNTLIKLLN | 0.108 | 0.599
FSMRWTFRYWGN | 0.19 | 0.547
RLIQPLPVQWLN | 0.0664 | 0.641
PDKRDHLIKLLN | 0.105 | 0.599
KKHKKFQKQKIN | 0.0762 | 0.599
ARWRVGLWRGASI | 0.652 | 0.665
LKILRQKMNHQP | 0.373 | 0.677
FSMRWTFRYWVW | 0.195 | 0.377
VRGAVGGWRLKG | 0.607 | 0.673
LKILRQKMNHQL | 0.172 | 0.67
PSLAASFWEVVG | 0.697 | 0.712
ARWRVGLWRSAS | 0.102 | 0.693
CTSCGYKFRTMN | 0.186 | 0.682
LVVYLSCVACIR | 0.0163 | 0.0325
ARWRVGLSRGAS | 0.669 | 0.695
ARWRVPLWRGAS | 0.646 | 0.684
VRGAVGGWRLVF | 0.564 | 0.677
LKILRQKQNHQN | 0.302 | 0.64
CLIQPLPVQFLN | 0.103 | 0.548

Sequence | protein stability index [1] | protein stability index [2]
LVVYLSKVACIN | 0.0955 | 0.38
NRWRVGLWRGAS | 0.454 | 0.685
FNMRWTFRYWVN | 0.0433 | 0.518
ARWRVGLWRGTS | 0.318 | 0.682
FSARWTFRYWVN | 0.0651 | 0.553
KKHKKGQKWKIN | 0.102 | 0.612
CTSCGYKFRTNND | 0.692 | 0.7
PDKRNHLIKLLC | 0.0722 | 0.577
KKHKKGWKQKIN | 0.0739 | 0.682
CTQCGYKFRTNN | 0.25 | 0.697
KKHKKGQKQLIN | 0.335 | 0.627
LKITRQKMNHQN | 0.229 | 0.674
LKILRQKMNHPN | 0.672 | 0.688
PSLAASFWRVYG | 0.174 | 0.691
VRVAVGGWRLVG | 0.111 | 0.652
PSLAANFWRVVG | 0.159 | 0.689
RLTQPLPVQFLN | 0.0562 | 0.857
KKHKKGYKQKIN | 0.113 | 0.607
KKHHKGQKQKIN | 0.0513 | 0.588
VRGAVGCWRLVG | 0.162 | 0.69
ARWRVGLWRGASQ | 0.661 | 0.646
WKHKKGQKQKIN | 0.135 | 0.546
KKHKKGQKQKINS | 0.126 | 0.668
LVVYLSCVCCIN | 0.461 | 0.415

Sequence | protein stability index [1] | protein stability index [2]
ARGRVGLWRGAS | 0.432 | 0.685
FSMRWTFRYWVNV | 0.147 | 0.5
LVVYLSCIACIN | 0.0141 | 0.0218
RLIQELPVQFLN | 0.061 | 0.616
CSSCGYKFRTNN | 0.216 | 0.695
VRGMVGGWRLVG | 0.161 | 0.683
ARWRVGLNRGAS | 0.68 | 0.668
KKHKKGQKHKIN | 0.228 | 0.588
CTICGYKFRTNN | 0.27 | 0.67
ARWRVGLWPGAS | 0.71 | 0.689
LKILIQKMNHQN | 0.217 | 0.695
ARYRVGLWRGAS | 0.567 | 0.668
ARWRFGLWRGAS | 0.581 | 0.698
PDKRNDLIKLLN | 0.184 | 0.626
LVVYLSCCACIN | 0.0859 | 0.138
PDKRNLLIKLLN | 0.124 | 0.608
CTRCGYKFRTNN | 0.231 | 0.699
LVVYLSCLACIN | 0.0182 | 0.0537
LKILRQKMNHQNI | 0.65 | 0.685
ARWRVGLWRGSS | 0.516 | 0.686
PSLMASFWRVVG | 0.131 | 0.707
PSLAASHWRVVG | 0.158 | 0.692
ARWRVGLARGAS | 0.707 | 0.692
VRGAVGGWRLVGP | 0.664 | 0.671

Sequence | protein stability index [1] | protein stability index [2]
LVVYLSCVACIND | 0.0204 | 0.0356
RLIGPLPVQFLN | 0.0842 | 0.598
LKIRRQKMNHQN | 0.246 | 0.687
LVVYLHCVACIN | 0.0158 | 0.0327
PSLAASAWRVVG | 0.155 | 0.666
LVVYLSCVACING | 0.0204 | 0.0326
VRGAVGTWRLVG | 0.171 | 0.694
PDKRNHLAKLLN | 0.0907 | 0.547
NLIQPLPVQFLN | 0.0875 | 0.582
ARWRVGLWRGASD | 0.688 | 0.686
PSLAASFWRVSG | 0.205 | 0.684
TKILRQKMNHQN | 0.148 | 0.67
RLIQPLPVQMLN | 0.0702 | 0.606
RSLAASFWRVVG | 0.117 | 0.689
ARWRVGLWRGAST | 0.659 | 0.682
KCHKKGQKQKIN | 0.342 | 0.592
RLAQPLPVQFLN | 0.0466 | 0.566
KKMKKGQKQKIN | 0.0965 | 0.758
KKHKKGQKQCIN | 0.26 | 0.585
VRGAVGGWRLVGK | 0.651 | 0.667
LVVYASCVACIN | 0.023 | 0.0371
